The target of assay [1] is T1, FtsQ (58–276), periplasmic domain of E. coli FtsQ (Escherichia coli strain K-12, UniProt P06136 58-276). Nature of the assay: SPR; minor phase. For orientation: In SPR one partner is held on a chip, and binding of the other changes the refractive index at the surface.
In assay [2] the target is T1, FtsQ (58–276), periplasmic domain of E. …. The experiment in a line: SPR; major phase.
Assay [3] has the same target. The experiment in a line: SPR; minor phase. This is another data set of the same source.
Assay [4] has the same target. Nature of the assay: SPR.

Usually koff stands for the rate constant with which the complex falls apart. Low values mean a long-lived complex, high ones a short-lived complex. By Kd is commonly meant the constant that tells how readily two partners part at equilibrium. A high value points to weaker binding.

T1 sequence (P06136 58-276): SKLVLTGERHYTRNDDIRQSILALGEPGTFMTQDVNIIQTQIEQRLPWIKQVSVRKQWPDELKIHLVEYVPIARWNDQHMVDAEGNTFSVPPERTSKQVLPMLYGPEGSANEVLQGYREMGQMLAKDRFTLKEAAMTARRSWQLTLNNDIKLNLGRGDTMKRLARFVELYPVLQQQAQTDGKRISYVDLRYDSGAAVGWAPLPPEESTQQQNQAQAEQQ

B1: FtsB (22–103), periplasmic domain of E. coli FtsB (domain or fragment)
chain: GKNGIHDYTRVNDDVAAQQATNAKLKARNDQLFAEIDDLNGGQEALEERARNELSMTRPGETFYRLVPDASKRAQSAGQNNR
Regarding B1, the values for the koff in assay [1] and in assay [2] were 0.031 s⁻¹ and 0.00021 s⁻¹, respectively. Besides, in assay [3], the Kd was found to be 11 µM.

B2: FtsN (58–320) plus FtsB (22–103), bound together (other)
chain 1: B1 chain
chain 2: HKKEESETLQSQKVTGNGLPPKPEERWRYIKELESRQPGVRAPTEPSAGGEVKTPEQLTPEQRQLLEQMQADMRQQPTQLVEVPWNEQTPEQRQQTLQRQRQAQQLAEQQRLAQQSRTTEQSWQQQTRTSQAAPVQAQPRQSKPASSQQPYQDLLQTPAHTTAQSKPQQAAPVARAADAPKPTAEKKDERRWMVQCGSFRGAEQAETVRAQLAFEGFDSKITTNNGWNRVVIGPVKGKENADSTLNRLKMAGHTNCIRLAAGG
For B2, the koff in assay [1] amounted to 0.03 s⁻¹; in assay [2], 8.3e-05 s⁻¹. The molecule further showed a Kd in assay [3] of 5.6 µM.

B3: FtsN (57–319), periplasmic domain of E. coli FtsN (domain or fragment)
chain: B2 chain 2
B3 came in with a koff in assay [4] of 0.076 s⁻¹.

The values above are taken from article PMC6134095 (2018).
